For 1 molecule, Kd results are on record in publication PMC2885444 (The Biochemical journal, 2009).

For the test, the target named is CHD4 PHD2 finger, wild type (UniProt Q14839 446-501). Nature of the test: other fluorescence titration + NMR titration.

The Kd is the concentration at which binding is half-saturated. In the case of ARTKQTARKSTG (trimethyl-lysine at 4) [H3K4me3 peptide (12-mer histone tail peptide)], the Kd worked out at 2000 µM.
